Source: US20190352381A1 (Alexion, published 2019)
Positions count from the first letter of the chain named. In names and notes the source's numbering stands. Where two headings read alike, the source gives them in different places. Each block holds one binder with its values, some of them ahead of it.

How the values were obtained:
[1] = target: T1, human properdin (human, UniProt P27918 28-469); assay: cell-based or functional assay
[2] = target: T1, human properdin; assay: binding kinetics at pH 6.0
[3] = target: T2, Human Albumin (human, UniProt P02768 25-609); assay: binding kinetics at pH 6.0
[4] = target: T3, Cynomolgus Albumin (cynomolgus, UniProt A2V9Z4 25-608); assay: binding kinetics at pH 6.0
[5] = target: T1, human properdin; assay: binding kinetics, biotinylated properdin capture method
[6] = target: T1, human properdin; assay: binding kinetics at pH 7.4
[7] = target: T4, cynomolgus properdin (cynomolgus, UniProt A0A2K5V0Z6 29-470); assay: binding kinetics at pH 7.4
T4 construct: properdin of cynomolgus serum in the hemolysis assays; also called biotinylated cynomolgus properdin

[8] = target: T2, Human Albumin; assay: binding kinetics at pH 7.4
[9] = target: T3, Cynomolgus Albumin; assay: binding kinetics at pH 7.4
[10] = target: T1, human properdin; assay: sensorgram kinetics (RU), biotinylated properdin capture method
[11] = target: T1, human properdin; assay: cell-based or functional assay; remark: listed apart in the source
[12] = target: T1, human properdin; assay: binding kinetics, biotinylated properdin capture method; remark: listed apart in the source
[13] = target: T4, cynomolgus properdin; assay: as above
[14] = target: T1, human properdin; assay: Octet bio-layer interferometry; streptavidin biosensors loaded with biotinylated human properdin, construct at 10 ug/mL
Description: All washes, dilutions, and measurements were performed in Kinetic buffer (FortéBio cat 185032) with the plate shaking at 1000 rpm. Streptavidin Biosensors (Forté Bio Cat:18-5019 lot: 1405301) were equilibrated in Kinetic buffer for 10 min and then loaded with 50 nm of biotinylated human properdin. For the association phase, 10 μg/mL of selected anti-properdin antibody or kinetics buffer blank was added to the biosensors preloaded with biotinylated human properdin, respectively.

[15] = target: T1, human properdin; assay: cell-based or functional assay; remark: listed apart in the source

- Kd [2]: 2.57 nM
- Kd [3]: 0.646 nM
- Kd [4]: 2.3 nM
- Kd [5]: 0.172 nM
- koff [5]: 0.000349 s⁻¹
- kon [5]: 2.03e+06 M⁻¹ s⁻¹
- Kd [6]: 0.172 nM
- Kd [7]: 1.98 nM
- Kd [8]: 0.774 nM
- Kd [9]: 7.07 nM
- IC50 (read off the curve) [1]: ~10 nM
B2: TPP-2225 (anti-Albumin LVP058 (G4S)3 Linker) (bispecific antibody)
chain: EVQLVESGGGLVKPGGSLRLSCAASGRPVSNYAAAWFRQAPGKEREFVSAINWQKTATYADSVKGRFTISRDNAKNSLYLQMNSLRAEDTAVYYCAAVFRVVAPKTQYDYDYWGQGTLVTVSSGGGGSGGGGSGGGGSLEVQLVESGGGLVQAGGSLRLSCAASGRISSIIHMAWYRQAPGKQRELVAEISRVGTTVYADSVKGRFTISRDDAKNTVTLQMNSLKPEDTAVYYCNALQYEKHGGADYWGQGTQVTVSS
notes: Single chain: anti-albumin VHH, (G4S)3 linker, non-humanized anti-properdin VHH LVP058; also called anti-Alb-LVP058

- Kd [6]: 0.485 nM
- Kd [7]: 3.08 nM
- Kd [12]: 0.485 nM
- koff [12]: 0.000834 s⁻¹
- kon [12]: 1.72e+06 M⁻¹ s⁻¹
- Kd [13]: 3.08 nM
- koff [13]: 0.00587 s⁻¹
- kon [13]: 1.91e+06 M⁻¹ s⁻¹
B6: TPP-3261 (Humanized anti-Albumin LVP058 (G4S)3 Linker (3-backmutations)) (bispecific antibody)
chain: EVQLVESGGGLVKPGGSLRLSCAASGRPVSNYAAAWFRQAPGKEREFVSAINWQKTATYADSVKGRFTISRDNAKNSLYLQMNSLRAEDTAVYYCAAVFRVVAPKTQYDYDYWGQGTLVTVSSGGGGSGGGGSGGGGSEVQLVESGGGLVQPGGSLRLSCAASGRISSIIHMAWVRQAPGKQRELVSEISRVGTTVYADSVKGRFTISRDNSKNTLYLQMNSLRAEDTAVYYCNALQYEKHGGADYWGQGTLVTVSS
notes: Single chain: anti-albumin VHH, (G4S)3 linker, humanized LVP058 with 3 back mutations

- IC50 (read off the curve) [11]: ~20 nM
B8: TPP-3072 (anti-Albumin LVP058 (G4E)2 (G4) Linker) (bispecific antibody)
chain: EVQLVESGGGLVKPGGSLRLSCAASGRPVSNYAAAWFRQAPGKEREFVSAINWQKTATYADSVKGRFTISRDNAKNSLYLQMNSLRAEDTAVYYCAAVFRVVAPKTQYDYDYWGQGTLVTVSSGGGGEGGGGEGGGGEVQLVESGGGLVQAGGSLRLSCAASGRISSIIHMAWYRQAPGKQRELVAEISRVGTTVYADSVKGRFTISRDDAKNTVTLQMNSLKPEDTAVYYCNALQYEKHGGADYWGQGTQVTVSS

- IC50 (read off the curve) [1]: ~20 nM
B12: TPP-2224 (LVP058 (G4S)3-anti-Alb-tandem VHH) (bispecific antibody)
chain: LEVQLVESGGGLVQAGGSLRLSCAASGRISSIIHMAWYRQAPGKQRELVAEISRVGTTVYADSVKGRFTISRDDAKNTVTLQMNSLKPEDTAVYYCNALQYEKHGGADYWGQGTQVTVSSGGGGSGGGGSGGGGSEVQLVESGGGLVKPGGSLRLSCAASGRPVSNYAAAWFRQAPGKEREFVSAINWQKTATYADSVKGRFTISRDNAKNSLYLQMNSLRAEDTAVYYCAAVFRVVAPKTQYDYDYWGQGTLVTVSS

The next lines start with the binder.

B1: TPP-2221 (LVP058_hG2-G4, VHH on silent human Fc) (Fc fusion)
chain: LEVQLVESGGGLVQAGGSLRLSCAASGRISSIIHMAWYRQAPGKQRELVAEISRVGTTVYADSVKGRFTISRDDAKNTVTLQMNSLKPEDTAVYYCNALQYEKHGGADYWGQGTQVTVSSRKCCVECPPCPAPPVAGPSVFLFPPKPKDTLMISRTPEVTCVVVDVSQEDPEVQFNWYVDGVEVHNAKTKPREEQFNSTYRVVSVLTVLHQDWLNGKEYKCKVSNKGLPSSIEKTISKAKGQPREPQVYTLPPSQEEMTKNQVSLTCLVKGFYPSDIAVEWESNGQPENNYKTTPPVLDSDGSFFLYSRLTVDKSRWQEGNVFSCSVMHEALHNHYTQKSLSLSLGK
- IC50 (read off the curve) [1]: ~10 nM

B3: TPP-2223 (Anti-properdin control antibody without C1q binding domain) (antibody, human IgG1, kappa, V domains shown)
VH: QVQLVQSGAEVKKPGASVKVSCKASGYIFTNYPIHWVRQAPGQGLEWMGFIDPGGGYDEPDERFRDRVTMTRDTSTSTVYMELSSLRSEDTAVYYCARRGGGYYLDYWGQGTLVTVSS
VL: DIQMTQSPSSLSASVGDRVTITCRASQDISFFLNWYQQKPGKAPKLLIYYTSRYHSGVPSRFSGSGSGTDFTLTISSLQPEDFATYYCQHGNTLPWTFGQGTKVEIKR
- IC50 (read off the curve) [1]: ~9 nM

B4: AB007 (VHH)
VHH: QVQLVESGGGLVQAGGSLRLSCAASGRISSIIHMAWYRQAPGKQRELVAEISRVGTTVYADSVKGRFTISRDDAKNTVTLQMNSLKPEDTAVYYCNALQYEKHGGADYWGQGTQVTVSG
notes: Llama VHH, cloned and expressed with a 6x histidine tag; also called anti-properdin VHH AB007
- Kd [10]: 0.344 nM
- koff [10]: 0.000359 s⁻¹
- kon [10]: 1.04e+06 M⁻¹ s⁻¹

B5: TPP-2951 (Humanized anti-Albumin LVP058 (G4S)3 Linker (7-backmutations)) (bispecific antibody)
chain: B6 chain with V143L, V175F, Q182E, R224K, A225P
notes: Single chain: anti-albumin VHH, (G4S)3 linker, humanized LVP058 with 7 back mutations
- IC50 (read off the curve) [11]: ~30 nM
- Kd [5]: 0.301 nM
- koff [5]: 0.000567 s⁻¹
- kon [5]: 1.88e+06 M⁻¹ s⁻¹
- Kd [6]: 0.301 nM
- Kd [7]: 2.33 nM
- Kd [12]: 0.322 nM
- koff [12]: 0.000574 s⁻¹
- kon [12]: 1.78e+06 M⁻¹ s⁻¹
- Kd [13]: 2.33 nM
- koff [13]: 0.00426 s⁻¹
- kon [13]: 1.82e+06 M⁻¹ s⁻¹

B7: TPP-3071 (anti-Albumin LVP058 (G4D)2 (G4) Linker) (bispecific antibody)
chain: B8 chain with E128D, E133D
notes: Single chain: anti-albumin VHH, (G4D)2 G4 linker, non-humanized LVP058
- binding result [14]: binds

B9: AB008 (VHH)
VHH: QVQLVESGGGLRQTGESLRLSCTASGRIFEVNMMAWYRQAPGKQRELVAEISRVGTTTYADSVKGRFTISRDSAKNTVTLQMNSLKSEDTAVYYCNALQYDRYGGAEYWGQGTQVTVSG
notes: Llama VHH, cloned and expressed with a 6x histidine tag; also called anti-properdin VHH AB008
- Kd [10]: 0.803 nM
- koff [10]: 0.00169 s⁻¹
- kon [10]: 2.11e+06 M⁻¹ s⁻¹

B10: AB005 (VHH)
VHH: B9 VHH with L4V, E16G, T58V, G119S
- IC50 (read off the curve) [15]: ~20 nM

B11: AB006 (VHH)
VHH: B9 VHH with V5A, R12V, T14A, E16D, R19K, Q44D, D101S
- IC50 (read off the curve) [15]: ~30 nM
